Experimental findings from patent US20250313602A1 are described below.

For the assay, the target named is FcRn. As to the kind of experiment: BLI.

“And” between values parts separate entries of the source, which are not always exact repeats. Identical values can stand only once.

Chain of FcRn (main, as listed by the source, chain 1 of 2): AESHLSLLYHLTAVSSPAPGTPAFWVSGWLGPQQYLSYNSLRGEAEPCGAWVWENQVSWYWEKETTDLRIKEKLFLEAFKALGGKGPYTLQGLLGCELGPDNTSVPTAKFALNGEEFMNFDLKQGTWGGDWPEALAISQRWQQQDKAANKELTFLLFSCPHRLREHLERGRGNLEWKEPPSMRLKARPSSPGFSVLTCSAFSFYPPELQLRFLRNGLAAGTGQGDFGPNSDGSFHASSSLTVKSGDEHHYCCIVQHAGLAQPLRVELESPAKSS
Chain of FcRn (main, as listed by the source, chain 2 of 2): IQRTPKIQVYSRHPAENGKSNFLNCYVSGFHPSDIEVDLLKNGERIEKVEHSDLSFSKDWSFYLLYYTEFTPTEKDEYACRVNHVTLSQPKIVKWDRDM

Consider Herceptin, for which the Kd (usually the constant that tells how readily two partners part at equilibrium) was 2.83 nM and 1.27 nM.
